Data from the Immune Epitope Database (IEDB).
Values belong to the sequence of their own block, whether it stands above or below them.

How the values were obtained:
[1] = biological target: HLA-A*02:01; experiment: IEDB peptide-MHC binding, purified MHC/competitive/radioactivity; filed as Kd, often an IC50 or EC50 that approximates it; ≥ and ≤ were set here for values at or beyond the usual limits of such assays
[2] = biological target: HLA-B*46:01; experiment: IEDB peptide-MHC binding, purified MHC/direct/fluorescence; filed as Kd, often an IC50 or EC50 that approximates it; ≥ and ≤ were set here for values at or beyond the usual limits of such assays
[3] = biological target: HLA-B*07:02; experiment: as above
[4] = biological target: HLA-A*31:01; experiment: as above; conditions: source organism: Pseudomonas aeruginosa UCBPP-PA14
[5] = biological target: HLA-A*02:01; experiment: as above
[6] = biological target: HLA-B*27:05; experiment: as above
[7] = biological target: HLA-B*15:01; experiment: as above
[8] = biological target: HLA-A*11:01; experiment: as above
[9] = biological target: HLA-B*08:01; experiment: as above
[10] = biological target: HLA-A*69:01; experiment: as above
[11] = biological target: HLA-B*58:01; experiment: as above
[12] = biological target: HLA-A*03:01; experiment: as above
[13] = biological target: HLA-A*26:01; experiment: as above
[14] = biological target: HLA-A*01:01; experiment: as above
[15] = biological target: HLA-B*08:01; experiment: IEDB peptide-MHC binding, purified MHC/competitive/radioactivity; filed as Kd, often an IC50 or EC50 that approximates it; ≥ and ≤ were set here for values at or beyond the usual limits of such assays
[16] = biological target: HLA-A*02:02; experiment: as above
[17] = biological target: HLA-A*02:06; experiment: as above
[18] = biological target: HLA-A*02:03; experiment: as above; conditions: source organism: Trypanosoma cruzi
[19] = biological target: HLA-A*68:02; experiment: as above
[20] = biological target: HLA-B*15:01; experiment: IEDB peptide-MHC binding, purified MHC/competitive/fluorescence; filed as Kd, often an IC50 or EC50 that approximates it; ≥ and ≤ were set here for values at or beyond the usual limits of such assays
[21] = biological target: HLA-A*03:01; experiment: as above
[22] = biological target: HLA-A*11:01; experiment: IEDB peptide-MHC binding, purified MHC/competitive/fluorescence; ≥ and ≤ were set here for values at or beyond the usual limits of such assays
[23] = biological target: HLA-A*26:01; experiment: IEDB peptide-MHC binding, purified MHC/competitive/fluorescence; filed as Kd, often an IC50 or EC50 that approximates it; ≥ and ≤ were set here for values at or beyond the usual limits of such assays; conditions: source organism: Pan troglodytes
[24] = biological target: HLA-B*51:01; experiment: as above; conditions: source organism: Pan troglodytes
[25] = biological target: HLA-A*31:01; experiment: IEDB peptide-MHC binding, purified MHC/competitive/radioactivity; filed as Kd, often an IC50 or EC50 that approximates it; ≥ and ≤ were set here for values at or beyond the usual limits of such assays; conditions: source organism: Dengue virus 2 Peru/IQT2913/1996
[26] = biological target: HLA-A*68:01; experiment: as above; conditions: source organism: Dengue virus 2 Peru/IQT2913/1996
[27] = biological target: HLA-A*33:01; experiment: as above; conditions: source organism: Dengue virus 2 Peru/IQT2913/1996
[28] = biological target: HLA-A*03:01; experiment: as above; conditions: source organism: Dengue virus 2 Peru/IQT2913/1996
[29] = biological target: HLA-A*02:01; experiment: IEDB peptide-MHC binding, purified MHC/competitive/fluorescence; filed as Kd, often an IC50 or EC50 that approximates it; ≥ and ≤ were set here for values at or beyond the usual limits of such assays; conditions: source organism: Pan troglodytes
[30] = biological target: HLA-B*27:03; experiment: as above; conditions: source organism: Pan troglodytes
[31] = biological target: HLA-A*02:01; experiment: IEDB peptide-MHC binding, purified MHC/competitive/fluorescence; ≥ and ≤ were set here for values at or beyond the usual limits of such assays; conditions: source organism: Zaire ebolavirus
[32] = biological target: HLA-A*24:02; experiment: as above; conditions: source organism: Zaire ebolavirus
[33] = biological target: HLA-B*40:01; experiment: IEDB peptide-MHC binding, purified MHC/direct/fluorescence; filed as Kd, often an IC50 or EC50 that approximates it; ≥ and ≤ were set here for values at or beyond the usual limits of such assays; conditions: source organism: Giardia lamblia ATCC 50803
[34] = source organism: Hepatitis C virus (isolate 1)
[35] = source organism: Pseudomonas aeruginosa UCBPP-PA14
[36] = source organism: Vaccinia virus WR
[37] = source organism: Trypanosoma cruzi
[38] = source organism: Escherichia coli F11
[39] = source organism: Dengue virus 4 Philippines/H241/1956
[40] = source organism: Dengue virus 3 Martinique/1243/1999
[41] = source organism: Vaccinia virus Copenhagen
[42] = source organism: Dengue virus 2 Jamaica/1409/1983
[43] = source organism: Sudan ebolavirus
[44] = source organism: Mammarenavirus lassaense
[45] = source organism: Zaire ebolavirus
[46] = source organism: Giardia lamblia ATCC 50803

Sequence: AAGLQDCTMLV
Kd [1, 34]: ≥ 50000 nM

Sequence: AMFEEQNQW
Kd ([2]; source organism: West Nile virus): ≥ 20 µM

Kd [3, 35]: ≥ 20 µM
Kd [4]: ≥ 20 µM
Kd [5, 35]: ≥ 20 µM
Kd [6, 35]: ≥ 20 µM
Kd [7, 35]: ≥ 20 µM
Kd [8, 35]: ≥ 20 µM
Kd [9, 35]: ≥ 20 µM
Kd [10, 35]: ≥ 20 µM
Kd [11, 35]: ≥ 20 µM
Kd [12, 35]: ≥ 20 µM
Kd [13, 35]: ≥ 20 µM
Kd [14, 35]: ≥ 20 µM
Sequence: ANPGRVKDW

Sequence: EARVEFGPL
Kd [15, 36]: 0.177 µM

Sequence: ELLRPTTVV
Kd [16, 37]: 6.01 µM
Kd [1, 37]: 6710 nM
Kd [17, 37]: 1.88 µM
Kd [18]: 1200 nM
Kd [19, 37]: 0.0918 µM

Kd ([16]; source organism: Homo sapiens): 0.117 µM
Kd ([1]; source organism: Homo sapiens): 558 nM
Kd ([17]; source organism: Homo sapiens): 0.0405 µM
Kd ([19]; source organism: Homo sapiens): 0.00206 µM
Sequence: ELQAALARV

Kd [20, 38]: 3 µM
Kd [21, 38]: ≥ 20 µM
Sequence: GIAACLMTY

Sequence: HALNELPESL
Kd [15, 39]: 3.74 µM

Sequence: IKLTVVVGDI
Kd [15, 40]: 1.05 µM

Sequence: IKRRLRTLIL
Kd [15, 40]: 0.185 µM

Sequence: ILIEGIFFV
Kd ([1]; source organism: Human alphaherpesvirus 3): 0.03 nM

Sequence: IRANNNRLP
IC50 [22, 36]: ≥ 208 µM

Sequence: KDAWLSLPK
Kd ([21]; source organism: Vibrio cholerae): ≥ 20 µM

Sequence: KFFPSSSYRR
Kd ([21]; source organism: Influenza A virus (A/Fort Monmouth/1/1947-mouse adapted(H1N1))): 4.32 µM

Kd ([3]; source organism: Homo sapiens): 0.0088 µM
Kd ([20]; source organism: Pan troglodytes): ≥ 20 µM
Kd [23]: ≥ 20 µM
Kd [24]: ≥ 20 µM
Sequence: KVRDRNFQL

Sequence: LFMSHVKSV
Kd [15, 36]: 0.00307 µM
Kd [5, 41]: 1.75 µM
Kd [7, 41]: 15.2 µM

Sequence: LLGLWGFATA
Kd [16, 37]: 0.0505 µM
Kd [1, 37]: 65.1 nM
Kd [17, 37]: 0.0613 µM
Kd [18]: 1.89 nM
Kd [19, 37]: ≥ 49.6 µM

Sequence: LLILCVTQVL
Kd [15, 42]: 0.979 µM

Sequence: LLLMRTTWA
Kd [15, 39]: 0.0185 µM

Sequence: LMRRGDLPV
Kd [15, 42]: 0.0178 µM

Sequence: LMWKQITPEL
Kd [15, 42]: 1.23 µM

Sequence: LSNTTGRLI
IC50 [22, 43]: 55.5 µM

Sequence: LYQPSSGCY
Kd [2, 44]: ≥ 20 µM
Kd [7, 44]: 1.07 µM

Sequence: MLINRFTMR
Kd [25]: 0.00429 µM
Kd [26]: 0.0177 µM
Kd [27]: 0.0204 µM
Kd ([15]; source organism: Dengue virus 2 Peru/IQT2913/1996): 0.906 µM
Kd [28]: 0.057 µM

Sequence: MQSLKFNRA
Kd [15, 36]: 0.307 µM

Sequence: MVYKLWFKY
Kd ([21]; source organism: Entamoeba dispar SAW760): 14.1 µM

Sequence: NKKRFFSDV
Kd [15, 36]: 8.72 µM

Sequence: NNSWKFNSE
Kd [15, 36]: 0.129 µM

Sequence: NPKTPKYKF
Kd ([3]; source organism: SARS-CoV1): ≥ 28.6 µM
Kd ([8]; source organism: SARS-CoV1): 3.96 µM
Kd ([9]; source organism: SARS-CoV1): 1.15 µM

Sequence: PENITTAVK
IC50 [22, 43]: ≥ 178 µM

Sequence: PRRCLKPVIL
Kd ([15]; source organism: Dengue virus 1 Brazil/97-11/1997): 2.72 µM

Sequence: RAAGLQDCT
Kd [1, 34]: ≥ 50000 nM

Sequence: RKNGKKVIQL
Kd [15, 42]: 0.161 µM

Kd ([3]; source organism: Ovis aries): 0.417 µM
Kd [29]: ≥ 20 µM
Kd [30]: ≥ 20 µM
Sequence: RVLTARKTV

Sequence: SEKMRRERA
Kd [15, 36]: 0.169 µM

Sequence: SLNRNFTLV
Kd [16, 37]: 0.000143 µM
Kd [1, 37]: 23.6 nM
Kd [17, 37]: 0.00069 µM
Kd [18]: 0.0957 nM
Kd [19, 37]: 0.227 µM

Sequence: SRFTPQFLL
IC50 [31]: ≥ 106 µM
IC50 [32]: 1.73 µM
IC50 [22, 45]: 45.4 µM

Sequence: SSTSRFVMF
Kd [15, 36]: 1.1 µM

Sequence: SVYGLMGFK
Kd ([21]; source organism: Myxoma virus): 0.0092 µM

Sequence: THNTPVYKL
IC50 [31]: ≥ 735 µM
IC50 [32]: 17.6 µM
IC50 [22, 45]: 62.4 µM

Sequence: TKTTAKEVAL
Kd ([15]; source organism: Dengue virus 4 Dominica/814669/1981): 4 µM

Sequence: TLTSDDLLI
Kd ([1]; source organism: Lassa virus Josiah): 4170 nM

Sequence: VLDQIDKNK
IC50 [22, 36]: ≥ 71.2 µM

Sequence: YRYLRHGKL
Kd ([6]; source organism: SARS-CoV1): 0.0786 µM
Kd ([9]; source organism: SARS-CoV1): 0.104 µM

Sequence: YSFSMFMSL
Kd [15, 36]: 0.146 µM

Sequence: YTDDYPMYK
Kd [3, 46]: ≥ 20 µM
Kd [5, 46]: ≥ 20 µM
Kd [6, 46]: ≥ 20 µM
Kd [7, 46]: ≥ 20 µM
Kd [8, 46]: 0.04 µM
Kd [9, 46]: ≥ 20 µM
Kd [10, 46]: 0.127 µM
Kd [33]: ≥ 20 µM
Kd [11, 46]: ≥ 20 µM
Kd [12, 46]: 0.359 µM
Kd [13, 46]: ≥ 20 µM
Kd [14, 46]: 0.0189 µM
